Values belong to the molecule of their own block, whether it stands above or below them. Bridge positions count the residues as written; N and C are the ends. Ends that are not written are not given here.
Legend:
[1] = system: porcine iris ciliary body; conditions: ref Heino et al., 1998; cited from earlier work
Excerpt: Similarly, substitution of Thr-6 ...

AMY1(a) receptor = target: T1, AMY1(a) receptor (Homo sapiens, UniProt O60894+P30988); experiment: cAMP production in Cos 7 cells via the AMY1(a) receptor; type: cell-based
T1 construct: HA; expressed in transfected cells; host or cells: Cos 7
T1 sequence (P30988 25-474): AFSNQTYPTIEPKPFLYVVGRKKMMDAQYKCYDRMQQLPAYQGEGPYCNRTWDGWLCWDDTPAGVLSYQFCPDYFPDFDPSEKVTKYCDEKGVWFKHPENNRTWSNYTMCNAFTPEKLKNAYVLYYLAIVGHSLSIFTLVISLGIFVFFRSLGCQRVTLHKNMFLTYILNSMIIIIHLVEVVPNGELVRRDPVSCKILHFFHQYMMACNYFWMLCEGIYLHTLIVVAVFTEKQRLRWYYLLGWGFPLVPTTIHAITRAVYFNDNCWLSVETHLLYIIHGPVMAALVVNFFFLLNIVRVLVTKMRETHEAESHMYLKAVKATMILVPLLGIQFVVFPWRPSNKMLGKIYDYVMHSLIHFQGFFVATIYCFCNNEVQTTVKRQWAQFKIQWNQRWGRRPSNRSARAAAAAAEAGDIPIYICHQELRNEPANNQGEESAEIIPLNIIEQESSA
T1 sequence (O60894 27-148): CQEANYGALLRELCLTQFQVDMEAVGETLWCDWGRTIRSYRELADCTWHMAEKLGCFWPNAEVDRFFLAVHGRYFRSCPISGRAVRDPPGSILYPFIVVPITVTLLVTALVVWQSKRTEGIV
Method: (§1) SK-N-MC cells were grown in DMEM/F12 medium supplemented with 10% fetal calf serum as described previously (Poyner et al., [1998]). […] Production of cAMP in SK-N-MC cells for all analogues except [[…]]-hαCGRP was by a radioreceptor assay, as described previously (Poyner et al., [1998]). […] For [[…]]-hαCGRP, a different clone of SK-N-MC cells was used and cAMP production was measured via AlphaScreen (Perkin Elmer, Wellesley, MA, USA), as described previously ([…] et al., [2010]). This assay was also used to investigate the action of all derivatives at the AMY1(a) receptor and other experiments using Cos 7 cells. […] GraphPad Prism 5.00 or 6.00 (GraphPad Software Inc., San Diego, CA, USA) was used for data fitting. Concentration-response curves were fitted to a sigmoidal function with Hill slope constrained to unity to obtain pEC50 and maximum responses (Emax) values. Displacement curves were analysed to obtain pIC50 values. Schild plots were fitted by linear regression to obtain slope and intercepts. pEC50 and pIC50 values were compared with that of human αCGRP using Dunnett's test with either a normal or repeated measures one-way ANOVA, as appropriate.

CGRP receptor [2] = target: T2, CGRP receptor (Homo sapiens, UniProt O60894+Q16602); experiment: β-arrestin 2 translocation in CHO-K1 cells (PathHunter eXpress); type: cell-based; design: host or cells: CHO-K1 (PathHunter eXpress β-arrestin kit)
T2 sequence (Q16602 23-461): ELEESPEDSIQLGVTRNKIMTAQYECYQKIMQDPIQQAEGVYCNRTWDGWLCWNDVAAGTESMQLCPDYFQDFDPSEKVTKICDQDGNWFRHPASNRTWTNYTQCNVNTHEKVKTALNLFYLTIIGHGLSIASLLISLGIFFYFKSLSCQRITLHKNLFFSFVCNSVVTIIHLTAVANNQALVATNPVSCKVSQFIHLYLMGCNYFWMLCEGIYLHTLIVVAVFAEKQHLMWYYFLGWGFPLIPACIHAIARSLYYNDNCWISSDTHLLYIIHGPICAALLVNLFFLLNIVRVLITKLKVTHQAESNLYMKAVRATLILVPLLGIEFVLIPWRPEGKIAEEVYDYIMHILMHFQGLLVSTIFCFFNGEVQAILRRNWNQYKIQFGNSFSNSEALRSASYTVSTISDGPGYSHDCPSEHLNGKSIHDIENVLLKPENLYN
T2 sequence (O60894 27-148): as the sequence (O60894 27-148) above
Method: (§2) GraphPad Prism 5.00 or 6.00 (GraphPad Software Inc., San Diego, CA, USA) was used for data fitting. Concentration–response curves were fitted to a sigmoidal function with Hill slope constrained to unity to obtain pEC50 and maximum responses (Emax) values. Displacement curves were analysed to obtain pIC50 values. Schild plots were fitted by linear regression to obtain slope and intercepts. pEC50 and pIC50 values were compared with that of human αCGRP using Dunnett's test with either a normal or repeated measures one-way ANOVA, as appropriate.

CGRP receptor [3] = target: T2, CGRP receptor; experiment: Displacement of 125I-CGRP binding to SK-N-MC cell membranes; design: relative expression levels of the receptors (endogenous vs. overexpressed); endogenous in cells; host or cells: SK-N-MC cells (ECACC clone; ATCC clone for [Cys5]-CGRP); conditions: 125I-CGRP binding, SK-N-MC membranes; listed as [Cys^5]-CGRP
Method: as §2

CGRP receptor [4] = target: T2, CGRP receptor; experiment: cAMP production in SK-N-MC cells; type: cell-based; design: relative expression levels of the receptors (endogenous vs. overexpressed); endogenous in cells; host or cells: SK-N-MC cells (ECACC clone; ATCC clone for [Cys5]-CGRP)
Method: (§3) Production of cAMP in SK-N-MC cells for all analogues except [[…]]-hαCGRP was by a radioreceptor assay, as described previously (Poyner et al., [1998]). […] For [[…]]-hαCGRP, a different clone of SK-N-MC cells was used and cAMP production was measured via AlphaScreen (Perkin Elmer, Wellesley, MA, USA), as described previously ([…] et al., [2010]). This assay was also used to investigate the action of all derivatives at the AMY1(a) receptor and other experiments using Cos 7 cells. […] GraphPad Prism 5.00 or 6.00 (GraphPad Software Inc., San Diego, CA, USA) was used for data fitting. Concentration-response curves were fitted to a sigmoidal function with Hill slope constrained to unity to obtain pEC50 and maximum responses (Emax) values. Displacement curves were analysed to obtain pIC50 values. Schild plots were fitted by linear regression to obtain slope and intercepts. pEC50 and pIC50 values were compared with that of human αCGRP using Dunnett's test with either a normal or repeated measures one-way ANOVA, as appropriate.

CGRP receptor [5] = target: T2, CGRP receptor; experiment: cAMP production in Cos 7 cells transfected with CLR and RAMP1; type: cell-based; design: relative expression levels of the receptors (endogenous vs. overexpressed); endogenous in cells; host or cells: SK-N-MC cells (ECACC clone; ATCC clone for [Cys5]-CGRP); conditions: read-out: Emax, % of that of CGRP, AlphaScreen
Method: as §1

CGRP receptor [6] = target: T2, CGRP receptor; experiment: Antagonism of CGRP-stimulated cAMP production in SK-N-MC cells; type: cell-based; design: relative expression levels of the receptors (endogenous vs. overexpressed); endogenous in cells; host or cells: SK-N-MC cells (ECACC clone; ATCC clone for [Cys5]-CGRP)
Method: as §3

[7] = target: AMY_(1(a)) receptor (human HA-tagged CT (a) receptor with human myc-tagged RAMP1) (human) (UniProt O60894)
Sequence of AMY_(1(a)) receptor (human HA-tagged CT (a) receptor with human myc-tagged RAMP1) (human) (O60894 whole entry, looked up): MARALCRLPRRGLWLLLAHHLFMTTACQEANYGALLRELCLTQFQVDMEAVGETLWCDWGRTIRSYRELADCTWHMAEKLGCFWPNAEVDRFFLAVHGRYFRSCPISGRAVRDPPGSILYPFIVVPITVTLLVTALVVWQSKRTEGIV

[8] = target: T3, CGRP receptor (calcitonin receptor-like receptor in complex with receptor activity-modifying protein 1) (human (endogenous in SK-N-MC), UniProt Q16602 23-461; O60894 27-148); experiment: cell-based or functional assay
T3 sequence (Q16602 23-461, chain 1 of 2): as the sequence (Q16602 23-461) above
T3 sequence (O60894 27-148, chain 2 of 2): as the sequence (O60894 27-148) above

[9] = target: T3, CGRP receptor (calcitonin receptor-like …); experiment: cell-based or functional assay; remark: listed apart in the source
[10] = target: T3, CGRP receptor (calcitonin receptor-like …); experiment: radioligand binding; displacement of ^125I-CGRP from SK-N-MC cell membranes by unlabelled peptides, microcentrifugation-based binding assay; [Cys^5]-CGRP and its control on another batch of SK-N-MC cells; conditions: one partner purified
[11] = AlphaScreen, means ± SEM, n = 3–6, listed as [Cys^6]
[12] = 2 h stimulation, means ± SEM, n = 3, listed as [Cys^6]
[13] = radioreceptor assay, approx. 10 min, means ± SEM, n = 3–6, listed as [Cys^6]

Molecule: [Val^6]-CGRP: CGRP analogue substituted at position 6, from Heino et al., 1998 (ACDTAVCVTHRLAGLLSRSGGVVKNNFVPTNVGSKAF-NH2; disulfide 2-7; ends not checked; UniProt P06881 83-119, looked up, variant T6V)
stimulation of cAMP production [1]: inactive

B2: [Ala^6]-CGRP (peptide)
chain: ACDTAACVTHRLAGLLSRSGGVVKNNFVPTNVGSKAF-NH2
modifications: disulfide 2-7
Emax (% CGRP), cAMP production in Cos 7 cells with the AMY (1(a)) receptor [7]: 42 % CGRP
pEC50, cAMP production in Cos 7 cells with the AMY (1(a)) receptor [7]: 7
pEC50, cAMP production in the second clone of SK-N-MC cells, AlphaScreen (control experiment) [8]: 7.39
Emax (% CGRP), cAMP production in SK-N-MC cells [9]: 72 % CGRP
Emax (% CGRP), β-arrestin 2 translocation in CHO-K1 cells expressing the human CGRP receptor [9]: 43 % CGRP
pEC50, cAMP production in SK-N-MC cells [9]: 6.59
pEC50, β-arrestin 2 translocation in CHO-K1 cells expressing the human CGRP receptor [9]: 7.74
pKi [10]: 8.57

B3: [Ala^4]-CGRP (peptide)
chain: ACDAATCVTHRLAGLLSRSGGVVKNNFVPTNVGSKAF-NH2
modifications: disulfide 2-7
Emax (% CGRP), cAMP production in Cos 7 cells with the AMY (1(a)) receptor [7]: 161 % CGRP
pEC50, cAMP production in Cos 7 cells with the AMY (1(a)) receptor [7]: 8.57
pEC50, cAMP production in the second clone of SK-N-MC cells, AlphaScreen (control experiment) [8]: 7.58
Emax (% CGRP), cAMP production in SK-N-MC cells [9]: 100 % CGRP
Emax (% CGRP), β-arrestin 2 translocation in CHO-K1 cells expressing the human CGRP receptor [9]: 73 % CGRP
pEC50, cAMP production in SK-N-MC cells [9]: 7.43
pEC50, β-arrestin 2 translocation in CHO-K1 cells expressing the human CGRP receptor [9]: 8.42
pKi [10]: 9.4

Now from value to molecule:

fold less potent than CGRP, cAMP at AMY1(a) receptor (AMY1(a) receptor): 75 fold
stimulation of cAMP production at AMY1(a) receptor (AMY1(a) receptor): no consistent stimulations
AMY1(a) receptor-stimulated cAMP Emax (% CGRP) CGRP analogue (AMY1(a) receptor; [11]): Undetectable
AMY1(a) receptor-stimulated cAMP pEC50 CGRP analogue (AMY1(a) receptor; [11]): Undetectable
β-Arrestin (CHO-K1) Emax (% CGRP) CGRP analogue (CGRP receptor [2]; [12]): Undetectable
β-Arrestin (CHO-K1) pEC50 CGRP analogue (CGRP receptor [2]; [12]): Undetectable
Emax (CGRP receptor [2]; CHO-K1, CHO-K1 cells, compared with CGRP, read-out: reduction of Emax, β-arrestin 2 translocation): 45%
decrease in potency for β-arrestin 2 translocation compared with CGRP (CGRP receptor [2]; CHO-K1 cells): ninefold
stimulation of β-arrestin 2 translocation (CGRP receptor [2]; CHO-K1 cells, [Asp6] and [Lys6] at concentrations of up to 1 μM): unable to stimulate
decrease in affinity compared with CGRP (CGRP receptor [3]): > 270 fold
decrease in potency on cAMP compared with CGRP (CGRP receptor [4]; SK-N-MC cells): over 100 fold
stimulation of cAMP production (CGRP receptor [4]; SK-N-MC cells, [Asp6] and [Lys6] at concentrations of up to 10 μM): unable to stimulate
cAMP (SK-N-MC) Emax (% CGRP) CGRP analogue (CGRP receptor [4]; [13]): Undetectable
cAMP (SK-N-MC) pEC50 CGRP analogue (CGRP receptor [4]; [13]): Undetectable
Emax (CGRP receptor [5]): 90 ± 8%
slope of Schild plot (CGRP receptor [6]; listed as [Cys^5]-CGRP): 1.33 ± 0.30
slope of Schild plot (CGRP receptor [6]; listed as [Cys^6]-CGRP): 0.98 ± 0.20
Molecule: CC(C)C[C@H](NC(=O)CNC(=O)[C@H](C)NC(=O)[C@H](CC(C)C)NC(=O)[C@H](CCCNC(=N)N)NC(=O)[C@H](Cc1c[nH]cn1)NC(=O)[C@@H](NC(=O)[C@@H](NC(=O)[C@@H]1CSSC[C@H](NC(=O)[C@@H](N)CS)C(=O)N[C@@H](CC(=O)O)C(=O)N[C@@H]([C@@H](C)O)C(=O)N[C@@H](C)C(=O)N[C@@H]([C@@H](C)O)C(=O)N1)C(C)C)[C@@H](C)O)C(=O)N[C@@H](CC(C)C)C(=O)N[C@@H](CO)C(=O)N[C@@H](CCCNC(=N)N)C(=O)N[C@@H](CO)C(=O)NCC(=O)NCC(=O)N[C@H](C(=O)N[C@H](C(=O)N[C@@H](CCCCN)C(=O)N[C@@H](CC(N)=O)C(=O)N[C@@H](CC(N)=O)C(=O)N[C@@H](Cc1ccccc1)C(=O)N[C@H](C(=O)N1CCC[C@H]1C(=O)N[C@H](C(=O)N[C@@H](CC(N)=O)C(=O)N[C@H](C(=O)NCC(=O)N[C@@H](CO)C(=O)N[C@@H](CCCCN)C(=O)N[C@@H](C)C(=O)N[C@@H](Cc1ccccc1)C(N)=O)C(C)C)[C@@H](C)O)C(C)C)C(C)C)C(C)C [[Cys^1]]

Emax (% CGRP), cAMP production in Cos 7 cells with the AMY (1(a)) receptor [7]: 50 % CGRP
pEC50, cAMP production in Cos 7 cells with the AMY (1(a)) receptor [7]: 7.78
pEC50, cAMP production in Cos 7 cells transfected with CLR and RAMP1 [8]: 7.9
Emax (% CGRP), β-arrestin 2 translocation in CHO-K1 cells expressing the human CGRP receptor [9]: 55 % CGRP
pEC50, cAMP production in SK-N-MC cells (other clone of cells, AlphaScreen; footnote: no response seen in five experiments) [9]: 7.18
pEC50, β-arrestin 2 translocation in CHO-K1 cells expressing the human CGRP receptor [9]: 8.25
pKi [10]: 8
B1: [Cys^5]-CGRP (peptide)
chain: ACDTCTCVTHRLAGLLSRSGGVVKNNFVPTNVGSKAF-NH2
modifications: disulfide 2-7; N-terminus assumed
SMILES: CC(C)C[C@H](NC(=O)CNC(=O)[C@H](C)NC(=O)[C@H](CC(C)C)NC(=O)[C@H](CCCNC(=N)N)NC(=O)[C@H](Cc1c[nH]cn1)NC(=O)[C@@H](NC(=O)[C@@H](NC(=O)[C@@H]1CSSC[C@H](NC(=O)[C@H](C)N)C(=O)N[C@@H](CC(=O)O)C(=O)N[C@@H]([C@@H](C)O)C(=O)N[C@@H](CS)C(=O)N[C@@H]([C@@H](C)O)C(=O)N1)C(C)C)[C@@H](C)O)C(=O)N[C@@H](CC(C)C)C(=O)N[C@@H](CO)C(=O)N[C@@H](CCCNC(=N)N)C(=O)N[C@@H](CO)C(=O)NCC(=O)NCC(=O)N[C@H](C(=O)N[C@H](C(=O)N[C@@H](CCCCN)C(=O)N[C@@H](CC(N)=O)C(=O)N[C@@H](CC(N)=O)C(=O)N[C@@H](Cc1ccccc1)C(=O)N[C@H](C(=O)N1CCC[C@H]1C(=O)N[C@H](C(=O)N[C@@H](CC(N)=O)C(=O)N[C@H](C(=O)NCC(=O)N[C@@H](CO)C(=O)N[C@@H](CCCCN)C(=O)N[C@@H](C)C(=O)N[C@@H](Cc1ccccc1)C(N)=O)C(C)C)[C@@H](C)O)C(C)C)C(C)C)C(C)C
